Measurements from article PMC7112767.

Molecular target: IL-1β mutant with pBpa at position 63 (Homo sapiens)
Test: cross-linking

monoclonal phage displaying the scFv of canakinumab
UV output (CFU): 6400 CFU | UV/non-UV output ratio: 3.8
